Reference: publication PMC5357137, “Target DNA bending by the Mu transpososome promotes careful transposition and prevents its reversal” (eLife, 2017)

Molecular target: the molecule itself
Test: SEC; CDCs formed from a 2:1 mixture of MuA protein and Mu end DNA at 30°C for ≥1 hr; 25 mM HEPES pH 7.4, 200 mM NaCl, 5% glycerol, 0.6 mM Zwittergent 3-12, 0.5 mM EDTA, no Mg2+; Superdex 200 Increase 10/300; tetramer peak collected

B1: MuA transposase lacking domain Iα (residues 1–76) (enzyme)
chain: not shown
notes: MuA transposase of bacteriophage Mu; all constructs lacked domain Iα (residues 1-76); domain IIIβ (the C-terminal ~60 residues) is included; In the assay it stood with Mu end DNA fragments as the cleaved-donor complex (CDC); The crystal structure PDB 4FCY holds a shorter construct without domain IIIβ; also called MuA protein; WT
B1 was tested, and the “stoichiometry N” value was 4.
